We go through two substances from patent US20080071063A1.

In assay [1] the target is FcγRIIIA (UniProt P08637). The assay is described as follows: assay not described; affinity relative to wild type Medi3.
Assay [2] has as its target FcγRIIIA (UniProt P08637). The assay is described as follows: assay not described; affinity relative to wild type Medi2.

Chain of UniProt P08637 (P08637 17-208 limits assumed): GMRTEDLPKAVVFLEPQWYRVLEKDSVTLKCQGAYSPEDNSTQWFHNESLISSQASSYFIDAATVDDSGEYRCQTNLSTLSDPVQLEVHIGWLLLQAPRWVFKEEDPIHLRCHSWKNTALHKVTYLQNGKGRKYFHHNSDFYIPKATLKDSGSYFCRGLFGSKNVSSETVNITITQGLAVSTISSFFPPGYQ

Substance “Medi3-V1 (Fc variant of anti-EphA2 antibody Medi3, glutamate at residue 332)” registered a fold higher binding affinity than Medi3 with FcγRIIIA [1] of 8.8 fold. Consider “Medi2-V3 ("V3" Fc variant of anti-Integrin αVβ3 antibody Medi2, aspartate 239, leucine 330, glutamate 332)”, for which the fold higher binding affinity than Medi2 with FcγRIIIA [2] came to 78 fold.
